Patent US20240132578A1

Columns and labels:
Experiment in all cases: cell-based or functional assay
[1] = biological target: HIV-1 envelope glycoprotein (Env) of isolate 92WR024, subtype A (HIV-1)
[2] = biological target: HIV-1 Env of isolate MGRM-F1-015 (pseudovirus) (HIV-1)
[3] = biological target: HIV-1 envelope glycoprotein (Env) of isolate MG RM-A-003, subtype A (HIV-1)
[4] = biological target: HIV-1 Env of isolate MGRM-AG-001 (pseudovirus) (HIV-1)
[5] = biological target: HIV-1 Env of isolate MGRM-AG-009 (pseudovirus) (HIV-1)
[6] = biological target: HIV-1 JR-CSF Env F468A (HIV-1 (isolate JR-CSF)) (UniProt P20871)
[7] = biological target: HIV-1 envelope glycoprotein (Env) of isolate VLGCB3, on pseudovirus (HIV-1)
[8] = biological target: HIV-1 MGRM-C-028 Env (HIV-1)
[9] = biological target: HIV-1 envelope glycoprotein (Env) of isolate 93TH305, on pseudovirus (HIV-1)
[10] = biological target: aMLV envelope
[11] = biological target: aMLV envelope protein on pseudovirus (negative control)
[12] = biological target: HIV-1 Env of pseudovirus MGRM-G-024 (HIV-1)
[13] = biological target: HIV-1 Env of pseudovirus MGRM-F1-010 (clade F) (HIV-1)
[14] = biological target: HIV-1 Env of isolate MGRM-D-013 (clade D pseudovirus) (HIV-1)
[15] = biological target: HIV-1 Env of isolate 92RW020 (clade A pseudovirus) (HIV-1)
[16] = biological target: HIV-1 Env of isolate 92TH021 (pseudovirus) (HIV-1)
[17] = biological target: HIV-1 Env of pseudovirus MGRM-F1-012 (clade F) (HIV-1)
[18] = biological target: HIV-1 Env of isolate MGRM-G-024 (subtype G) (HIV-1)
[19] = biological target: HIV-1 Env of isolate MGRM-D-028 (clade D pseudovirus) (HIV-1)
[20] = biological target: HIV-1 Env of isolate 92RW009 (clade A pseudovirus) (HIV-1)
[21] = biological target: HIV-1 envelope glycoprotein (Env) of isolate 93IN905 (HIV-1)
[22] = biological target: HIV-1 Env of isolate MGRM-Chronic-B-008, clade B (HIV-1)
[23] = biological target: HIV-1 Env of isolate APV_17, clade B (HIV-1)
[24] = biological target: HIV-1 Env of isolate MGRM-AE-003 (pseudovirus) (HIV-1)
[25] = biological target: HIV-1 Env of isolate VLGCA1 (subtype A) (HIV-1)
[26] = biological target: HIV-1 Env of isolate MGRM-A-013 (subtype A) (HIV-1)
[27] = biological target: HIV-1 Env of isolate MGRM-F1-015 (HIV-1)
[28] = biological target: HIV-1 Env of isolate MGRM-F1-014 (HIV-1)
[29] = biological target: HIV-1 Env of isolate MGRM-AE-007 (subtype AE) (HIV-1)
[30] = biological target: HIV-1 Env of isolate MGRM-D-022 (pseudovirus) (HIV-1)
[31] = biological target: HIV-1 Env of isolate MGRM-Chronic-B-001 (HIV-1)
[32] = biological target: HIV-1 Env of pseudovirus isolate MGRM-Chronic-B-002 (clade B) (HIV-1)
[33] = biological target: HIV-1 Env of isolate MGRM-C-019 (subtype C), on pseudovirus (HIV-1)
[34] = biological target: HIV-1 Env of pseudovirus isolate APV-13 (clade B) (HIV-1)
[35] = biological target: HIV-1 Env of isolate 92RW009 (subtype A) (HIV-1)

5345_I01 (PGT-137) (antibody), sequence (VH): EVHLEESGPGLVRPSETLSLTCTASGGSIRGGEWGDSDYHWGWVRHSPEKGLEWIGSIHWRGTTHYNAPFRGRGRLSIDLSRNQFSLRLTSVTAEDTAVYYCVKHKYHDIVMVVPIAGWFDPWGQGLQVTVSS
5345_I01 (PGT-137) (antibody), sequence (VL): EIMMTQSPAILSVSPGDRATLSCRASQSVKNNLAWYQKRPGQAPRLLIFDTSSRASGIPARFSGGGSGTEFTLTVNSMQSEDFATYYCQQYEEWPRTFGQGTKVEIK
4980_N08 (PGT-143) (antibody), sequence (VH): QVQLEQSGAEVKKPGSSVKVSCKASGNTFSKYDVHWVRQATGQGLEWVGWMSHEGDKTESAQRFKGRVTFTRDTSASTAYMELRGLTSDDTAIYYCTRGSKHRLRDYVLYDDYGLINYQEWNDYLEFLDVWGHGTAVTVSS
4980_N08 (PGT-143) (antibody), sequence (VL): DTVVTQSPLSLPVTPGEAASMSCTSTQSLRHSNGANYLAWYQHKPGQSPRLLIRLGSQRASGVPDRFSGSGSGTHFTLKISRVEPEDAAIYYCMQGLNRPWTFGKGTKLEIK
4993_K13 (PGT-141) (antibody), sequence (VH): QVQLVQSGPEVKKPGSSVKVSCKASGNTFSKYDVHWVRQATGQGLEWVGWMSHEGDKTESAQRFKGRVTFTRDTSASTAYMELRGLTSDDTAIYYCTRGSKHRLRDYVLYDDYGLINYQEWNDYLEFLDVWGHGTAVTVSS
4993_K13 (PGT-141) (antibody), sequence (VL): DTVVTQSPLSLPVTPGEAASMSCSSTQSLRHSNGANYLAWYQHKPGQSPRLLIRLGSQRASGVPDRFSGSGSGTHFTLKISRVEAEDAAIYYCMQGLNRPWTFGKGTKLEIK
4970_K22 (PGT-144) (antibody), sequence (VH): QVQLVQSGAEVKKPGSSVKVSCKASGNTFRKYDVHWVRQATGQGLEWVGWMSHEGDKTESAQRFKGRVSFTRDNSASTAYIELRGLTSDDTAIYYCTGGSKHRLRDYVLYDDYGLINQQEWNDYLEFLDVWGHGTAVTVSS
4970_K22 (PGT-144) (antibody), sequence (VL): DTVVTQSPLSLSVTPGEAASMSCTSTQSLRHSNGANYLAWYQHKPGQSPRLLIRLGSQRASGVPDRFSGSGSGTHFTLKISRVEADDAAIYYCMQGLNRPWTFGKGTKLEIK
4995_E20 (PGT-142) (antibody), sequence (VH): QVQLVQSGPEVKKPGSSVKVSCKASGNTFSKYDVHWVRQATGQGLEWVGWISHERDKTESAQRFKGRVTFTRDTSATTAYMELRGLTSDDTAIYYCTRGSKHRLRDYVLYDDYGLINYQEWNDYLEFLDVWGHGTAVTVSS
4995_P16 (PGT-145) (antibody), sequence (VH): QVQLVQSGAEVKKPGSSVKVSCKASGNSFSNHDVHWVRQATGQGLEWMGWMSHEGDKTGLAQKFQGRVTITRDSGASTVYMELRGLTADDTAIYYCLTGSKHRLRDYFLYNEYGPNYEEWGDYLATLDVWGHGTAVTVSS
4995_P16 (PGT-145) (antibody), sequence (VL): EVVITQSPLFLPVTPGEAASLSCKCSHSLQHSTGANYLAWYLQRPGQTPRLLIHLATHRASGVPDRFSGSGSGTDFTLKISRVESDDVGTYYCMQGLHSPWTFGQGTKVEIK
5329_C19 (PGT-136) (antibody), sequence (VH): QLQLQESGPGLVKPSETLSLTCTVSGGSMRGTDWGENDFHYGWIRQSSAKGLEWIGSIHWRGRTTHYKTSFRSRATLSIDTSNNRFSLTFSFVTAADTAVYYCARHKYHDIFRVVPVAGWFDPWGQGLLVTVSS
5329_C19 (PGT-136) (antibody), sequence (VL): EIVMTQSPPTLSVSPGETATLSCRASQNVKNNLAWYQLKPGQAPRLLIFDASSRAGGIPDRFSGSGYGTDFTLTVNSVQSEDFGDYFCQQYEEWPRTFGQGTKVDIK

Substance	IC50, pseudovirus neutralization [1]	IC50 (µg/mL), pseudovirus neutralization [2]	IC50, pseudovirus neutralization [3]	IC50 (µg/mL), pseudovirus neutralization [4]	IC50 (µg/mL), pseudovirus neutralization [5]	Fold IC50 increase relative to wild-type (pseudovirus neutralization) [6]	IC50, pseudovirus neutralization [7]	IC50, pseudovirus neutralization [8]	IC50, pseudovirus neutralization [9]	IC50, pseudovirus neutralization [10]	IC50 (ug/mL), pseudovirus neutralization [11]	IC50 (µg/mL), pseudovirus neutralization [18]	IC50, pseudovirus neutralization [25]	IC50, pseudovirus neutralization [26]	IC50 (µg/mL), pseudovirus neutralization [27]	IC50 (µg/mL), pseudovirus neutralization [28]	IC50, pseudovirus neutralization [29]	IC50 (µg/mL), pseudovirus neutralization [30]	IC50 (µg/mL), pseudovirus neutralization [31]	further results
4858_P08 (PGT-123) (antibody)	> 50 µg/mL	> 50 µg/mL	0.495 µg/mL	2.51 µg/mL	0.073 µg/mL	0.5 fold	0.004 µg/mL	0.443 µg/mL	0.008 µg/mL	> 10 µg/mL	> 10 µg/mL									
1496_C09 (PG9) (TCN-109) (antibody)				17.1 µg/mL				0.121 µg/mL				0.163 µg/mL								IC50 (µg/ml), pseudovirus neutralization [12]: 0.07 µg/mL; IC50 [13]: 0.03 µg/mL; IC50, pseudovirus neutralization [14]: 0.06 µg/mL; IC50 (µg/ml), pseudovirus neutralization [15]: 0.08 µg/mL; IC50 (µg/mL), pseudovirus neutralization [16]: 0.059 µg/mL; IC50 [17]: 0.01 µg/mL; IC50, pseudovirus neutralization [19]: 4.39 µg/mL; IC50 (µg/ml), pseudovirus neutralization [20]: 0.03 µg/mL; IC50 (µg/ml), pseudovirus neutralization [21]: 0.03 µg/mL; IC50 (µg/ml), pseudovirus neutralization [22]: 6.66 µg/mL; IC50 (µg/ml), pseudovirus neutralization [23]: 14.6 µg/mL; IC50 (µg/mL), pseudovirus neutralization [24]: 0.044 µg/mL
5114_A19 (PGT-128) (antibody)						0.5 fold							0.838 µg/mL	0.008 µg/mL	> 50 µg/mL	0.277 µg/mL	> 50 µg/mL	> 50 µg/mL	> 50 µg/mL	
5329_C19 (PGT-136) (antibody)											> 10 µg/mL		> 50 µg/mL	> 50 µg/mL	> 50 µg/mL	> 50 µg/mL	> 50 µg/mL	> 50 µg/mL	> 50 µg/mL	
4838_L06 (PGT-121) (antibody)	> 50 µg/mL	28.4 µg/mL	0.435 µg/mL				0.005 µg/mL		0.007 µg/mL	> 10 µg/mL	> 10 µg/mL									
4970_K22 (PGT-144) (antibody)												7.92 µg/mL								IC50, pseudovirus neutralization [32]: > 50 µg/mL; IC50 (µg/mL), single-round pseudovirus neutralization [16]: 0.052 µg/mL; IC50, single-round pseudovirus neutralization [33]: 0.513 µg/mL; IC50, pseudovirus neutralization [34]: > 50 µg/mL; IC50, pseudovirus neutralization [35]: 0.893 µg/mL; IC50 (µg/mL), single-round pseudovirus neutralization [24]: > 50 µg/mL
4995_E20 (PGT-142) (antibody)												0.054 µg/mL								IC50, pseudovirus neutralization [32]: > 50 µg/mL; IC50 (µg/mL), single-round pseudovirus neutralization [16]: 0.002 µg/mL; IC50, single-round pseudovirus neutralization [33]: 0.003 µg/mL; IC50, pseudovirus neutralization [34]: > 50 µg/mL; IC50, pseudovirus neutralization [35]: 0.006 µg/mL; IC50 (µg/mL), single-round pseudovirus neutralization [24]: > 50 µg/mL
5141_B17 (PGT-126) (antibody)	42 µg/mL	> 50 µg/mL	> 50 µg/mL	> 50 µg/mL	0.03 µg/mL	0.7 fold	0.007 µg/mL	0.283 µg/mL	0.013 µg/mL	> 10 µg/mL	> 10 µg/mL									Neutralization IC80 [21]: 0.0676 µg/mL; Neutralization IC90 [21]: 0.14 µg/mL; Neutralization IC95 [21]: 0.275 µg/mL; neutralization IC50 [21]: 0.0194 µg/mL
5343_B08 (PGT-135) (antibody)						1.1 fold					> 10 µg/mL		> 50 µg/mL	> 50 µg/mL	1.11 µg/mL	> 50 µg/mL	> 50 µg/mL	> 50 µg/mL	> 50 µg/mL	
4995_P16 (PGT-145) (antibody)												0.06 µg/mL								IC50, pseudovirus neutralization [32]: 3.67 µg/mL; IC50 (µg/mL), single-round pseudovirus neutralization [16]: 0.013 µg/mL; IC50, single-round pseudovirus neutralization [33]: 0.005 µg/mL; IC50, pseudovirus neutralization [34]: 0.337 µg/mL; IC50, pseudovirus neutralization [35]: 0.026 µg/mL; IC50 (µg/mL), single-round pseudovirus neutralization [24]: 0.552 µg/mL
5145_B14 (PGT-127) (antibody)	> 50 µg/mL	> 50 µg/mL	> 50 µg/mL	> 50 µg/mL	0.059 µg/mL	3 fold	0.022 µg/mL		0.017 µg/mL											
4877_D15 (PGT-122) (antibody)	> 50 µg/mL	31.4 µg/mL	3.79 µg/mL	14.5 µg/mL	0.128 µg/mL		0.008 µg/mL	2.06 µg/mL	0.013 µg/mL	> 10 µg/mL	> 10 µg/mL									
4980_N08 (PGT-143) (antibody)												0.048 µg/mL								IC50, pseudovirus neutralization [32]: > 50 µg/mL; IC50 (µg/mL), single-round pseudovirus neutralization [16]: 0.003 µg/mL; IC50, single-round pseudovirus neutralization [33]: 0.004 µg/mL; IC50, pseudovirus neutralization [34]: > 50 µg/mL; IC50, pseudovirus neutralization [35]: 0.01 µg/mL; IC50 (µg/mL), single-round pseudovirus neutralization [24]: > 50 µg/mL
PGV04 (antibody)				0.218 µg/mL	0.148 µg/mL							0.033 µg/mL								IC50 (µg/mL), pseudovirus neutralization [16]: 1.29 µg/mL; IC50 (µg/mL), pseudovirus neutralization [24]: 6.4 µg/mL
5147_N06 (PGT-130) (antibody)						0.4 fold		> 10 µg/mL		> 10 µg/mL	> 10 µg/mL		> 50 µg/mL	> 50 µg/mL	> 50 µg/mL	11.8 µg/mL	0.083 µg/mL	> 50 µg/mL	> 50 µg/mL	
5136_H01 (PGT-131) (antibody)						1.6 fold							> 50 µg/mL	> 50 µg/mL	> 50 µg/mL	> 50 µg/mL	0.026 µg/mL	> 50 µg/mL	> 50 µg/mL	
4993_K13 (PGT-141) (antibody)												0.051 µg/mL								IC50, pseudovirus neutralization [32]: > 50 µg/mL; IC50 (µg/mL), single-round pseudovirus neutralization [16]: 0.001 µg/mL; IC50, single-round pseudovirus neutralization [33]: 0.008 µg/mL; IC50, pseudovirus neutralization [34]: > 50 µg/mL; IC50, pseudovirus neutralization [35]: 0.022 µg/mL; IC50 (µg/mL), single-round pseudovirus neutralization [24]: > 50 µg/mL
5345_I01 (PGT-137) (antibody)													> 50 µg/mL	49.2 µg/mL	> 50 µg/mL	> 50 µg/mL	> 50 µg/mL	> 50 µg/mL	> 50 µg/mL	
5123_A06 (PGT-125) (antibody)	35.5 µg/mL	> 50 µg/mL	> 50 µg/mL	> 50 µg/mL	0.026 µg/mL	1 fold	0.015 µg/mL	5.78 µg/mL	0.008 µg/mL	> 10 µg/mL	> 10 µg/mL									
